Where a chain is given by its changes, count along the chain named.
T1: human GIP receptor (human) (UniProt P48546)
T1 sequence (looked up): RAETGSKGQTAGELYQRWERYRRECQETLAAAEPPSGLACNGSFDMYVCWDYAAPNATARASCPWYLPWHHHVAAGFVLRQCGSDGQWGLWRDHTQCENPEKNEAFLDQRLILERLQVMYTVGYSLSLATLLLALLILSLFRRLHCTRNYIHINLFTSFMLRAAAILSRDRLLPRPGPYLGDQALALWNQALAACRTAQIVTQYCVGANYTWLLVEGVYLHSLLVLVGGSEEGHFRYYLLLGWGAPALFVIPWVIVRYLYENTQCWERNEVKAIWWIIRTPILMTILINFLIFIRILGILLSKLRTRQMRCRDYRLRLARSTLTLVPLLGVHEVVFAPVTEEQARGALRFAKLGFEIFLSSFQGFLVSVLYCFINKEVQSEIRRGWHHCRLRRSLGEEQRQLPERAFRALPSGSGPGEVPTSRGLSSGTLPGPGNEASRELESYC

B1: Example 416 (peptide)
chain: YXQGTXTSDYSILLDKKAQXNFIEYLEEGGPSSGAPPPS
modifications: synthetic construct; SITE 2: note = 2-Aminoisobutyric Acid; SITE 6: note = alpha-methyl-2-fluoro-L-phenylalanine; SITE 17: note = Lysine is chemically modified through conjugation of the epsilon-amino group of the Lysine side chain with (gamma-Glu)2-CO-(CH2)16-CO2H; SITE 20: note = 2-Aminoisobutyric
B2: Example 425 (peptide)
chain: B1 chain with Y1H, N21A
modifications: not fully specified; synthetic construct; SITE 2: note = 2-Aminoisobutyric Acid; SITE 6: note = alpha-methyl-2-fluoro-L-phenylalanine; SITE 17: note = Lysine is chemically modified through conjugation of the epsilon-amino group of the Lysine side chain with (2-[2-(2-Amino-ethoxy)-ethoxy]-acetyl)-(gamma-Glu)-CO-(CH2) 16-
B3: Example 430 (peptide)
chain: B1 chain with K17I, N21A, E24K
modifications: not fully specified; synthetic construct; SITE 2: note = 2-Aminoisobutyric Acid; SITE 6: note = alpha-methyl-2-fluoro-L-phenylalanine; SITE 20: note = 2-Aminoisobutyric Acid; SITE 24: note = Lysine is chemically modified through conjugation of the epsilon-amino group of the Lysine side chain with (2-[2-(2-Amino-ethoxy)-
B4: Example 426 (peptide)
chain: B1 chain with Y1H, N21A
modifications: synthetic construct; SITE 2: note = 2-Aminoisobutyric Acid; SITE 6: note = alpha-methyl-2-fluoro-L-phenylalanine; SITE 17: note = Lysine is chemically modified through conjugation of the epsilon-amino group of the Lysine side chain with (gamma-Glu)2-CO-(CH2)16-CO2H; SITE 20: note = 2-Aminoisobutyric
B5: Example 421 (peptide)
chain: B1 chain with L13X, N21A
modifications: synthetic construct; SITE 2: note = 2-Aminoisobutyric Acid; SITE 6: note = alpha-methyl-2-fluoro-L-phenylalanine; SITE 13: note = alpha-methyl-leucine; SITE 17: note = Lysine is chemically modified through conjugation of the epsilon-amino group of the Lysine side chain with (2-[2-(2-Amino-ethoxy)-et)
B6: Example 419 (peptide)
chain: B1 chain with N21A, E27L
modifications: synthetic construct; SITE 2: note = 2-Aminoisobutyric Acid; SITE 6: note = alpha-methyl-L-phenylalanine; SITE 17: note = Lysine is chemically modified through conjugation of the epsilon-amino group of the Lysine side chain with (2-[2-(2-Amino-ethoxy)-ethoxy]-acetyl)2-(gamma-Glu)-CO-(CH2 )16-CO2H; SI
B7: Example 427 (peptide)
chain: B1 chain with K16X, N21A, E27L
modifications: synthetic construct; SITE 2: note = 2-Aminoisobutyric Acid; SITE 6: note = alpha-methyl-2-fluoro-L-phenylalanine; SITE 16: note = L-ornithine; SITE 17: note = Lysine is chemically modified through conjugation of the epsilon-amino group of the Lysine side chain with (2-[2-(2-Amino-ethoxy)-ethoxy]-ace)
B8: Example 442 (peptide)
chain: B1 chain with Y10X, L13X, N21A, A35E
modifications: synthetic construct; SITE 2: note = 2-Aminoisobutyric Acid; SITE 6: note = alpha-methyl-2-fluoro-L-phenylalanine; SITE 10: note = 3-(4-Pyridyl)-L-alanine; SITE 13: note = alpha-methyl-leucine; SITE 17: note = Lysine is chemically modified through conjugation of the epsilon-amino group of the Lysine
B9: Example 443 (peptide)
chain: B1 chain with Y10X, L13X, N21A, P37E
modifications: synthetic construct; SITE 2: note = 2-Aminoisobutyric Acid; SITE 6: note = alpha-methyl-2-fluoro-L-phenylalanine; SITE 10: note = 3-(4-Pyridyl)-L-alanine; SITE 13: note = alpha-methyl-leucine; SITE 17: note = Lysine is chemically modified through conjugation of the epsilon-amino group of the Lysine
B10: Example 423 (peptide)
chain: B1 chain with L13X, N21A, P37E
modifications: synthetic construct; SITE 2: note = 2-Aminoisobutyric Acid; SITE 6: note = alpha-methyl-2-fluoro-L-phenylalanine; SITE 13: note = alpha-methyl-leucine; SITE 17: note = Lysine is chemically modified through conjugation of the epsilon-amino group of the Lysine side chain with (2-[2-(2-Amino-ethoxy)-et)
B11: Example 418 (peptide)
chain: B1 chain with Y10X, N21A, E27L
modifications: synthetic construct; SITE 2: note = 2-Aminoisobutyric Acid; SITE 6: note = alpha-methyl-L-phenylalanine; SITE 10: note = 3-(4-Pyridyl)-L-alanine; SITE 17: note = Lysine is chemically modified through conjugation of the epsilon-amino group of the Lysine side chain with (2-[2-(2-Amino-ethoxy)-ethoxy]-
B12: Example 428 (peptide)
chain: B1 chain with K16X, N21A, E27L
modifications: synthetic construct; SITE 2: note = 2-Aminoisobutyric Acid; SITE 6: note = alpha-methyl-2-fluoro-L-phenylalanine; SITE 16: note = L-ornithine; SITE 17: note = Lysine is chemically modified through conjugation of the epsilon-amino group of the Lysine side chain with (gamma-Glu)2-CO-(CH2)16-CO2H; SITE
B13: Example 441 (peptide)
chain: B1 chain with Y10X, L13X, K16X, N21A
modifications: synthetic construct; SITE 2: note = 2-Aminoisobutyric Acid; SITE 6: note = alpha-methyl-2-fluoro-L-phenylalanine; SITE 10: note = 3-(4-Pyridyl)-L-alanine; SITE 13: note = alpha-methyl-leucine; SITE 16: note = L-ornithine; SITE 17: note = Lysine is chemically modified through conjugation of the epsil
B14: Example 424 (peptide)
chain: YXQGTXTSDYSIXLDKKAQXAFIEYLEEGGPSSGAPPPSE
modifications: synthetic construct; SITE 2: note = 2-Aminoisobutyric Acid; SITE 6: note = alpha-methyl-2-fluoro-L-phenylalanine; SITE 13: note = alpha-methyl-leucine; SITE 17: note = Lysine is chemically modified through conjugation of the epsilon-amino group of the Lysine side chain with (2-[2-(2-Amino-ethoxy)-et)

The binders below were run against hGLP-1R (Homo sapiens, UniProt P43220) (assay: cell-based or functional assay).
Sequence of hGLP-1R (P43220 24-463): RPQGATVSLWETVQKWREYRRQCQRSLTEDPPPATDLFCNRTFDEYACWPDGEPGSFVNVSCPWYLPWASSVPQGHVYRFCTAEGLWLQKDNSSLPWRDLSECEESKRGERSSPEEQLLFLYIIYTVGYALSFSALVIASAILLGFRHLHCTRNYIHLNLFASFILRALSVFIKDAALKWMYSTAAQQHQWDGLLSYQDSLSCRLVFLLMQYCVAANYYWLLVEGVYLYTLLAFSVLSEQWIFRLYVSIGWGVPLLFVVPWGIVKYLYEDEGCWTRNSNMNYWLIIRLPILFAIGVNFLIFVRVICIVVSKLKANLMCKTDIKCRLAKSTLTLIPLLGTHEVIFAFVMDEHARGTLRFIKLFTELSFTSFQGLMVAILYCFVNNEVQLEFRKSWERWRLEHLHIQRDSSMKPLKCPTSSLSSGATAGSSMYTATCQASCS
With B1 the Relative cAMP EC50 was 0.331 nM and the cAMP Rel EC50, nM (1% HSA) was 40.8 nM.
With B2 the Relative cAMP EC50 was 0.15 nM and the cAMP Rel EC50, nM (1% HSA) was 20.3 nM.
For B3, the Relative cAMP EC50 was 0.438 nM and the cAMP Rel EC50, nM (1% HSA) was 78.9 nM.
In the case of B4, the Relative cAMP EC50 is reported as 0.139 nM and the cAMP Rel EC50, nM (1% HSA) is reported as 16.6 nM.
With B5 the Relative cAMP EC50 was 0.21 nM and the cAMP Rel EC50, nM (1% HSA) was 31.9 nM.
B6 was tested, and the Relative cAMP EC50 was 0.615 nM and the cAMP Rel EC50, nM (1% HSA) was 65.5 nM.
B7 showed a Relative cAMP EC50 of 0.282 nM and a cAMP Rel EC50, nM (1% HSA) of 42.9 nM.
B8 was tested, and the Relative cAMP EC50 was 0.267 nM and the cAMP Rel EC50, nM (1% HSA) was 23.9 nM.
B9 gave a Relative cAMP EC50 of 0.572 nM and a cAMP Rel EC50, nM (1% HSA) of 34.3 nM.
For B10, the Relative cAMP EC50 was 0.194 nM and the cAMP Rel EC50, nM (1% HSA) was 28.7 nM.
In the case of B11, the Relative cAMP EC50 is reported as 0.264 nM and the cAMP Rel EC50, nM (1% HSA) is reported as 36.6 nM.
B12 showed a Relative cAMP EC50 of 0.207 nM and a cAMP Rel EC50, nM (1% HSA) of 38.2 nM.
B13 was tested, and the Relative cAMP EC50 was 0.365 nM and the cAMP Rel EC50, nM (1% HSA) was 24.7 nM.
With B14 the Relative cAMP EC50 was 0.318 nM and the cAMP Rel EC50, nM (1% HSA) was 29.5 nM.

The binders below were run against T1, human GIP receptor (human) (assay: cell-based or functional assay).
B1 was tested, and the Relative cAMP EC50 was 0.0393 nM and the cAMP Rel EC50, nM (1% HSA) was 27.6 nM.
For B2, the Relative cAMP EC50 was 0.0997 nM and the cAMP Rel EC50, nM (1% HSA) was 46.9 nM.
In the case of B3, the Relative cAMP EC50 is reported as 0.0144 nM and the cAMP Rel EC50, nM (1% HSA) is reported as 4.65 nM.
Work on B4 yielded a Relative cAMP EC50 of 0.079 nM and a cAMP Rel EC50, nM (1% HSA) of 29.8 nM.
Binder B5 has a Relative cAMP EC50 of 0.0132 nM and a cAMP Rel EC50, nM (1% HSA) of 2.98 nM.
B6 was tested, and the Relative cAMP EC50 was 0.0235 nM and the cAMP Rel EC50, nM (1% HSA) was 9.47 nM.
B7 showed a Relative cAMP EC50 of 0.0121 nM and a cAMP Rel EC50, nM (1% HSA) of 4.25 nM.
Work on B8 yielded a Relative cAMP EC50 of 0.0237 nM and a cAMP Rel EC50, nM (1% HSA) of 1.81 nM.
B9 showed a Relative cAMP EC50 of 0.0291 nM and a cAMP Rel EC50, nM (1% HSA) of 1.57 nM.
Work on B10 yielded a Relative cAMP EC50 of 0.0114 nM and a cAMP Rel EC50, nM (1% HSA) of 3.07 nM.
With B11 the Relative cAMP EC50 was 0.0153 nM and the cAMP Rel EC50, nM (1% HSA) was 6.02 nM.
Binder B12 has a Relative cAMP EC50 of 0.01 nM and a cAMP Rel EC50, nM (1% HSA) of 4.55 nM.
B13 was tested, and the Relative cAMP EC50 was 0.0239 nM and the cAMP Rel EC50, nM (1% HSA) was 1.96 nM.
For B14, the Relative cAMP EC50 was 0.0154 nM and the cAMP Rel EC50, nM (1% HSA) was 3.21 nM.

These binders were tested against human glucagon receptor (human) (UniProt P47871) (assay: cell-based or functional assay).
Sequence of human glucagon receptor (human) (P47871 26-477): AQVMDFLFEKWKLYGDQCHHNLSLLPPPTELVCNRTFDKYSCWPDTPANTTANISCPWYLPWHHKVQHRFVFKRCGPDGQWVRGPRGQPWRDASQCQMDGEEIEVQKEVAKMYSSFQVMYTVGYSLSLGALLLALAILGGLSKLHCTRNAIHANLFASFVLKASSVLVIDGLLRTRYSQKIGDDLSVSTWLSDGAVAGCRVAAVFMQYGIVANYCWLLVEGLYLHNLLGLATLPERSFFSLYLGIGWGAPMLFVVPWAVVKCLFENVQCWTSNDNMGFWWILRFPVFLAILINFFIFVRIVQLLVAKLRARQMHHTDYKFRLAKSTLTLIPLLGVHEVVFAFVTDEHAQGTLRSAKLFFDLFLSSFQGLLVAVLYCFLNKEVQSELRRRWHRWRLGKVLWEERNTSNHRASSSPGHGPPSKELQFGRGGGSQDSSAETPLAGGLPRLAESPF
B1 gave a Relative cAMP EC50 of 2.08 nM and a cAMP Rel EC50, nM (1% HSA) of 348 nM.
Binder B2 has a Relative cAMP EC50 of 5.49 nM and a cAMP Rel EC50, nM (1% HSA) of 1150 nM.
In the case of B3, the Relative cAMP EC50 is reported as 2.11 nM and the cAMP Rel EC50, nM (1% HSA) is reported as 559 nM.
Binder B4 has a Relative cAMP EC50 of 4.33 nM and a cAMP Rel EC50, nM (1% HSA) of 740 nM.
With B5 the Relative cAMP EC50 was 3.25 nM and the cAMP Rel EC50, nM (1% HSA) was 468 nM.
B6 was tested, and the Relative cAMP EC50 was 8.52 nM and the cAMP Rel EC50, nM (1% HSA) was 1650 nM.
B7 showed a Relative cAMP EC50 of 3.81 nM and a cAMP Rel EC50, nM (1% HSA) of 1440 nM.
In the case of B8, the Relative cAMP EC50 is reported as 5.66 nM and the cAMP Rel EC50, nM (1% HSA) is reported as 342 nM.
Binder B9 has a Relative cAMP EC50 of 6.09 nM and a cAMP Rel EC50, nM (1% HSA) of 265 nM.
For B10, the Relative cAMP EC50 was 1.92 nM and the cAMP Rel EC50, nM (1% HSA) was 319 nM.
In the case of B11, the Relative cAMP EC50 is reported as 4.7 nM and the cAMP Rel EC50, nM (1% HSA) is reported as 627 nM.
Binder B12 has a Relative cAMP EC50 of 2.35 nM and a cAMP Rel EC50, nM (1% HSA) of 536 nM.
B13 gave a Relative cAMP EC50 of 8 nM and a cAMP Rel EC50, nM (1% HSA) of 855 nM.
B14 was tested, and the Relative cAMP EC50 was 3.12 nM and the cAMP Rel EC50, nM (1% HSA) was 443 nM.

Reference: US20240270821A1, “GIP/GLP1/GCG TRI-RECEPTOR AGONISTS AND USES THEREOF” (priority 2023, published 2024)
